Test results from publication PMC11405395 (The EMBO Journal, 2024).

B1: Rrm3-2E (Rrm3 K118E, R122E) (enzyme, S. cerevisiae, UniProt P38766 1-723, looked up)
chain: MFRSHASGNKKQWSKRSSNGSTPAASASGSHAYRQQTLSSFFMGCGKKSAAASKNSTTIIDLESGDEGNRNITAPPRPRLIRNNSSSLFSQSQGSFGDDDPDAEFKKLVDVPRLNSYEKSSESLSMTSSLHKTASASTTQKTYHFDEDETLREVTSVKSNSRQLSFTSTINIEDSSMKLSTDSERPAKRSKPSMEFQGLKLTVPKKIKPLLRKTVSNMDSMNHRSASSPVVLTMEQERVVNLIVKKRTNVFYTGSAGTGKSVILQTIIRQLSSLYGKESIAITASTGLAAVTIGGSTLHKWSGIGIGNKTIDQLVKKIQSQKDLLAAWRYTKVLIIDEISMVDGNLLDKLEQIARRIRKNDDPFGGIQLVLTGDFFQLPPVAKKDEHNVVKFCFESEMWKRCIQKTILLTKVFRQQDNKLIDILNAIRYGELTVDIAKTIRNLNRDIDYADGIAPTELYATRREVELSNVKKLQSLPGDLYEFKAVDNAPERYQAILDSSLMVEKVVALKEDAQVMMLKNKPDVELVNGSLGKVLFFVTESLVVKMKEIYKIVDDEVVMDMRLVSRVIGNPLLKESKEFRQDLNARPLARLERLKILINYAVKISPHKEKFPYVRWTVGKNKYIHELMVPERFPIDIPRENVGLERTQIPLMLCWALSIHKAQGQTIQRLKVDLRRIFEAGQVYVALSRAVTMDTLQVLNFDPGKIRTNERVKDFYKRLETLK
notes: Built in the wild-type expression plasmid pTDK15 (pOO8); also called 3FLAG-TEV-RRM3-2E; source: S. cerevisiae strain yOO4, purified (anti-FLAG M2 resin, HiTrap heparin); not shown: 3FLAG, N-terminal, kept
B2: RTEL1 ΔE813-E821 ΔR875-V881 (enzyme, human, UniProt Q9NZ71-1 1-1219, looked up)
chain: MPKIVLNGVTVDFPFQPYKCQQEYMTKVLECLQQKVNGILESPTGTGKTLCLLCTTLAWREHLRDGISARKIAERAQGELFPDRALSSWGNAAAAAGDPIACYTDIPKIIYASRTHSQLTQVINELRNTSYRPKVCVLGSREQLCIHPEVKKQESNHLQIHLCRKKVASRSCHFYNNVEEKSLEQELASPILDIEDLVKSGSKHRVCPYYLSRNLKQQADIIFMPYNYLLDAKSRRAHNIDLKGTVVIFDEAHNVEKMCEESASFDLTPHDLASGLDVIDQVLEEQTKAAQQGEPHPEFSADSPSPGLNMELEDIAKLKMILLRLEGAIDAVELPGDDSGVTKPGSYIFELFAEAQITFQTKGCILDSLDQIIQHLAGRAGVFTNTAGLQKLADIIQIVFSVDPSEGSPGSPAGLGALQSYKVHIHPDAGHRRTAQRSDAWSTTAARKRGKVLSYWCFSPGHSMHELVRQGVRSLILTSGTLAPVSSFALEMQIPFPVCLENPHIIDKHQIWVGVVPRGPDGAQLSSAFDRRFSEECLSSLGKALGNIARVVPYGLLIFFPSYPVMEKSLEFWRARDLARKMEALKPLFVEPRSKGSFSETISAYYARVAAPGSTGATFLAVCRGKASEGLDFSDTNGRGVIVTGLPYPPRMDPRVVLKMQFLDEMKGQGGAGGQFLSGQEWYRQQASRAVNQAIGRVIRHRQDYGAVFLCDHRFAFADARAQLPSWVRPHVRVYDNFGHVIRDVAQFFRVAERTMPAPAPRATAPSVRGEDAVSEAKSPGPFFSTRKAKSLDLHVPSLKQRSSGSPAAGDPQEPVPARQRPRGLLAALEHSEQRAGSPGEEQAHSCSTLSLLSEKRPAEEPRGGSHPEEPVAGAQTDRAKLFMVAVKQELSQANFATFTQALQDYKGSDDFAALAACLGPLFAEDPKKHNLLQGFYQFVRPHHKQQFEEVCIQLTGRGCGYRPEHSIPRRQRAQPVLDPTGRTAPDPKLTVSTAAAQQLDPQEHLNQGRPHLSPRPPPTGDPGSQPQWGSGVPRAGKQGQHAVSAYLADARRALGSAGCSQLLAALTAYKQDDDLDKVLAVLAALTTAKPEDFPLLHRFSMFVRPHHKQRFSQTCTDLTGRPYPGMEPPGPQEERLAVPPVLTHRAPQPGPSRSEKTGKTQSKISSFLRQRPAGTVGAGGEDAGPSQSSGPPHGPAASEWGL
notes: Plasmid pSP53; also called hsRTEL1ΔE813-E821 ΔR875-V881; source: S. cerevisiae strain ySP070, purified (anti-FLAG M2 resin, HiLoad Superdex 200); not shown: 2XFLAG, C-terminal, kept
B3: RTEL1ΔE813-E821 (enzyme, human, UniProt Q9NZ71-1 1-1219, looked up)
chain: MPKIVLNGVTVDFPFQPYKCQQEYMTKVLECLQQKVNGILESPTGTGKTLCLLCTTLAWREHLRDGISARKIAERAQGELFPDRALSSWGNAAAAAGDPIACYTDIPKIIYASRTHSQLTQVINELRNTSYRPKVCVLGSREQLCIHPEVKKQESNHLQIHLCRKKVASRSCHFYNNVEEKSLEQELASPILDIEDLVKSGSKHRVCPYYLSRNLKQQADIIFMPYNYLLDAKSRRAHNIDLKGTVVIFDEAHNVEKMCEESASFDLTPHDLASGLDVIDQVLEEQTKAAQQGEPHPEFSADSPSPGLNMELEDIAKLKMILLRLEGAIDAVELPGDDSGVTKPGSYIFELFAEAQITFQTKGCILDSLDQIIQHLAGRAGVFTNTAGLQKLADIIQIVFSVDPSEGSPGSPAGLGALQSYKVHIHPDAGHRRTAQRSDAWSTTAARKRGKVLSYWCFSPGHSMHELVRQGVRSLILTSGTLAPVSSFALEMQIPFPVCLENPHIIDKHQIWVGVVPRGPDGAQLSSAFDRRFSEECLSSLGKALGNIARVVPYGLLIFFPSYPVMEKSLEFWRARDLARKMEALKPLFVEPRSKGSFSETISAYYARVAAPGSTGATFLAVCRGKASEGLDFSDTNGRGVIVTGLPYPPRMDPRVVLKMQFLDEMKGQGGAGGQFLSGQEWYRQQASRAVNQAIGRVIRHRQDYGAVFLCDHRFAFADARAQLPSWVRPHVRVYDNFGHVIRDVAQFFRVAERTMPAPAPRATAPSVRGEDAVSEAKSPGPFFSTRKAKSLDLHVPSLKQRSSGSPAAGDPQEPVPARQRPRGLLAALEHSEQRAGSPGEEQAHSCSTLSLLSEKRPAEEPRGGRKKIRLVSHPEEPVAGAQTDRAKLFMVAVKQELSQANFATFTQALQDYKGSDDFAALAACLGPLFAEDPKKHNLLQGFYQFVRPHHKQQFEEVCIQLTGRGCGYRPEHSIPRRQRAQPVLDPTGRTAPDPKLTVSTAAAQQLDPQEHLNQGRPHLSPRPPPTGDPGSQPQWGSGVPRAGKQGQHAVSAYLADARRALGSAGCSQLLAALTAYKQDDDLDKVLAVLAALTTAKPEDFPLLHRFSMFVRPHHKQRFSQTCTDLTGRPYPGMEPPGPQEERLAVPPVLTHRAPQPGPSRSEKTGKTQSKISSFLRQRPAGTVGAGGEDAGPSQSSGPPHGPAASEWGL
notes: Plasmid pSP51; also called hsRTEL1ΔE813-E821; source: S. cerevisiae strain ySP075, purified (anti-FLAG M2 resin, HiLoad Superdex 200); not shown: 2XFLAG, C-terminal, kept
B4: RTEL1ΔR875-V881 (enzyme, human, UniProt Q9NZ71-1 1-1219, looked up)
chain: MPKIVLNGVTVDFPFQPYKCQQEYMTKVLECLQQKVNGILESPTGTGKTLCLLCTTLAWREHLRDGISARKIAERAQGELFPDRALSSWGNAAAAAGDPIACYTDIPKIIYASRTHSQLTQVINELRNTSYRPKVCVLGSREQLCIHPEVKKQESNHLQIHLCRKKVASRSCHFYNNVEEKSLEQELASPILDIEDLVKSGSKHRVCPYYLSRNLKQQADIIFMPYNYLLDAKSRRAHNIDLKGTVVIFDEAHNVEKMCEESASFDLTPHDLASGLDVIDQVLEEQTKAAQQGEPHPEFSADSPSPGLNMELEDIAKLKMILLRLEGAIDAVELPGDDSGVTKPGSYIFELFAEAQITFQTKGCILDSLDQIIQHLAGRAGVFTNTAGLQKLADIIQIVFSVDPSEGSPGSPAGLGALQSYKVHIHPDAGHRRTAQRSDAWSTTAARKRGKVLSYWCFSPGHSMHELVRQGVRSLILTSGTLAPVSSFALEMQIPFPVCLENPHIIDKHQIWVGVVPRGPDGAQLSSAFDRRFSEECLSSLGKALGNIARVVPYGLLIFFPSYPVMEKSLEFWRARDLARKMEALKPLFVEPRSKGSFSETISAYYARVAAPGSTGATFLAVCRGKASEGLDFSDTNGRGVIVTGLPYPPRMDPRVVLKMQFLDEMKGQGGAGGQFLSGQEWYRQQASRAVNQAIGRVIRHRQDYGAVFLCDHRFAFADARAQLPSWVRPHVRVYDNFGHVIRDVAQFFRVAERTMPAPAPRATAPSVRGEDAVSEAKSPGPFFSTRKAKSLDLHVPSLKQRSSGSPAAGDPESSLCVEYEQEPVPARQRPRGLLAALEHSEQRAGSPGEEQAHSCSTLSLLSEKRPAEEPRGGSHPEEPVAGAQTDRAKLFMVAVKQELSQANFATFTQALQDYKGSDDFAALAACLGPLFAEDPKKHNLLQGFYQFVRPHHKQQFEEVCIQLTGRGCGYRPEHSIPRRQRAQPVLDPTGRTAPDPKLTVSTAAAQQLDPQEHLNQGRPHLSPRPPPTGDPGSQPQWGSGVPRAGKQGQHAVSAYLADARRALGSAGCSQLLAALTAYKQDDDLDKVLAVLAALTTAKPEDFPLLHRFSMFVRPHHKQRFSQTCTDLTGRPYPGMEPPGPQEERLAVPPVLTHRAPQPGPSRSEKTGKTQSKISSFLRQRPAGTVGAGGEDAGPSQSSGPPHGPAASEWGL
notes: Plasmid pSP52; also called hsRTEL1ΔR875-V881; source: S. cerevisiae strain ySP076, purified (anti-FLAG M2 resin, HiLoad Superdex 200); not shown: 2XFLAG, C-terminal, kept

What was measured:
Conditions in all cases: both partners purified
[1] = target: T1, CMGE (budding yeast CMG helicase, Cdc45-Mcm2-7-GINS, together with DNA polymerase ε) (S. cerevisiae, UniProt P29469 1-868; P24279 1-971; P30665 1-933; P29496 1-775; P53091 1-1017; P38132 …); assay: co-IP; purified proteins mixed: 1–10 nM Rrm3/Rrm3N-BacPif1/BacPif1 with 15 nM CMG and 30 nM Pol ε, 10 min on ice; anti-Sld5 beads, 30 min 4 °C; 25 mM Hepes-KOH pH 7.6, 400 mM KOAc, 0.02% NP-40-S, 0.1 mg/mL BSA, 1 mM DTT, 10 mM Mg(OAc)2; immunoblotting
T1 construct: Mcm2, S. cerevisiae, subunit of CMG; Mcm3, S. cerevisiae, subunit of CMG (CBP-TEV-MCM3); Mcm4, S. cerevisiae, subunit of CMG; Mcm5, S. cerevisiae, subunit of CMG; Mcm6, S. cerevisiae, subunit of CMG; Mcm7, S. cerevisiae, subunit of CMG; Cdc45, S. cerevisiae, subunit of CMG (CDC45iFLAG2, internal FLAG tag; detected by anti-FLAG immunoblotting); Sld5, S. cerevisiae, GINS subunit of CMG …

[2] = target: T2, DNA polymerase ε (Pol2, Dpb2, Dpb3, Dpb4), S. cerevisiae (S. cerevisiae, UniProt P21951 1-2222; P24482 1-689; P27344 1-201; Q04603 1-196); assay: co-IP; purified proteins mixed: 10 nM FLAG-Rrm3 with 15 nM Pol ε, 10 min on ice; anti-FLAG M2 magnetic beads; 25 mM Hepes-KOH pH 7.6, 400 mM KOAc, 0.02% NP-40-S, 0.1 mg/mL BSA, 1 mM DTT, 10 mM Mg(OAc)2; immunoblotting
T2 construct: Pol2, catalytic subunit of DNA polymerase ε, S. cerevisiae; Dpb2, second largest subunit of DNA polymerase ε, S. cerevisiae; Dpb3, subunit of DNA polymerase ε, S. cerevisiae; Dpb4, subunit of DNA polymerase ε, S. cerevisiae (DPB4-TEV-CBP); also called Polε; Pol ε; source: S. cerevisiae strain yAJ2, purified as previously described (Yeeles et al, 2015); copies: + + +

[3] = target: T3, Homo sapiens DNA polymerase ε (POLE1, POLE2, POLE3, POLE4) (human, UniProt Q07864 1-2286; P56282 1-527; Q9NRF9 1-147; Q9NR33 1-117); assay: co-IP; purified proteins mixed: 10 nM RTEL1-FLAG with 15 nM hsPol ε, 10 min on ice; anti-FLAG M2 magnetic beads; 25 mM Hepes-KOH pH 7.6, 200 mM KOAc, 0.02% NP-40-S, 0.1 mg/mL BSA, 1 mM DTT, 10 mM Mg(OAc)2; immunoblotting
T3 construct: POLE1 (catalytic subunit of DNA polymerase ε), human; POLE2 (homologue of budding yeast Dpb2), human (PolE2_tev_2XFLAG; tag removed with TEV protease); POLE3, human; POLE4, human; The methods call the removed tag 3FLAG, the strain and plasmid 2XFLAG; also called hsPOL ε; POL ε; source: S. cerevisiae strain ySP061, purified (anti-FLAG M2 resin, TEV cleavage, MonoQ, Superdex 200); not shown: …

[4] = target: T4, Homo sapiens CMG helicase (CDC45-MCM2-7-GINS) (human, UniProt P49736 1-904; P25205 1-808; P33991 1-863; P33992 1-734; Q14566 1-821; P33993 …); assay: co-IP; purified proteins mixed: 10 nM RTEL1-FLAG with 15 nM hsCMG, 10 min on ice; anti-FLAG M2 magnetic beads; 25 mM Hepes-KOH pH 7.6, 100 mM KOAc, 0.02% NP-40-S, 0.1 mg/mL BSA, 1 mM DTT, 10 mM Mg(OAc)2; immunoblotting
T4 construct: MCM2, human, subunit of CMG; MCM3, human, subunit of CMG; MCM4, human, subunit of CMG; MCM5, human, subunit of CMG; MCM6, human, subunit of CMG; MCM7, human, subunit of CMG; CDC45, human, subunit of CMG; SLD5 (GINS4), human, GINS subunit of CMG (PrA-3TEV-HsSld5; eluted from IgG Sepharose with TEV protease); PSF1 (GINS1), human, GINS subunit of CMG; PSF2 (GINS2), human, GINS subunit of CMG; PSF3 …

T3 sequence (Q07864 whole entry, chain 1 of 4): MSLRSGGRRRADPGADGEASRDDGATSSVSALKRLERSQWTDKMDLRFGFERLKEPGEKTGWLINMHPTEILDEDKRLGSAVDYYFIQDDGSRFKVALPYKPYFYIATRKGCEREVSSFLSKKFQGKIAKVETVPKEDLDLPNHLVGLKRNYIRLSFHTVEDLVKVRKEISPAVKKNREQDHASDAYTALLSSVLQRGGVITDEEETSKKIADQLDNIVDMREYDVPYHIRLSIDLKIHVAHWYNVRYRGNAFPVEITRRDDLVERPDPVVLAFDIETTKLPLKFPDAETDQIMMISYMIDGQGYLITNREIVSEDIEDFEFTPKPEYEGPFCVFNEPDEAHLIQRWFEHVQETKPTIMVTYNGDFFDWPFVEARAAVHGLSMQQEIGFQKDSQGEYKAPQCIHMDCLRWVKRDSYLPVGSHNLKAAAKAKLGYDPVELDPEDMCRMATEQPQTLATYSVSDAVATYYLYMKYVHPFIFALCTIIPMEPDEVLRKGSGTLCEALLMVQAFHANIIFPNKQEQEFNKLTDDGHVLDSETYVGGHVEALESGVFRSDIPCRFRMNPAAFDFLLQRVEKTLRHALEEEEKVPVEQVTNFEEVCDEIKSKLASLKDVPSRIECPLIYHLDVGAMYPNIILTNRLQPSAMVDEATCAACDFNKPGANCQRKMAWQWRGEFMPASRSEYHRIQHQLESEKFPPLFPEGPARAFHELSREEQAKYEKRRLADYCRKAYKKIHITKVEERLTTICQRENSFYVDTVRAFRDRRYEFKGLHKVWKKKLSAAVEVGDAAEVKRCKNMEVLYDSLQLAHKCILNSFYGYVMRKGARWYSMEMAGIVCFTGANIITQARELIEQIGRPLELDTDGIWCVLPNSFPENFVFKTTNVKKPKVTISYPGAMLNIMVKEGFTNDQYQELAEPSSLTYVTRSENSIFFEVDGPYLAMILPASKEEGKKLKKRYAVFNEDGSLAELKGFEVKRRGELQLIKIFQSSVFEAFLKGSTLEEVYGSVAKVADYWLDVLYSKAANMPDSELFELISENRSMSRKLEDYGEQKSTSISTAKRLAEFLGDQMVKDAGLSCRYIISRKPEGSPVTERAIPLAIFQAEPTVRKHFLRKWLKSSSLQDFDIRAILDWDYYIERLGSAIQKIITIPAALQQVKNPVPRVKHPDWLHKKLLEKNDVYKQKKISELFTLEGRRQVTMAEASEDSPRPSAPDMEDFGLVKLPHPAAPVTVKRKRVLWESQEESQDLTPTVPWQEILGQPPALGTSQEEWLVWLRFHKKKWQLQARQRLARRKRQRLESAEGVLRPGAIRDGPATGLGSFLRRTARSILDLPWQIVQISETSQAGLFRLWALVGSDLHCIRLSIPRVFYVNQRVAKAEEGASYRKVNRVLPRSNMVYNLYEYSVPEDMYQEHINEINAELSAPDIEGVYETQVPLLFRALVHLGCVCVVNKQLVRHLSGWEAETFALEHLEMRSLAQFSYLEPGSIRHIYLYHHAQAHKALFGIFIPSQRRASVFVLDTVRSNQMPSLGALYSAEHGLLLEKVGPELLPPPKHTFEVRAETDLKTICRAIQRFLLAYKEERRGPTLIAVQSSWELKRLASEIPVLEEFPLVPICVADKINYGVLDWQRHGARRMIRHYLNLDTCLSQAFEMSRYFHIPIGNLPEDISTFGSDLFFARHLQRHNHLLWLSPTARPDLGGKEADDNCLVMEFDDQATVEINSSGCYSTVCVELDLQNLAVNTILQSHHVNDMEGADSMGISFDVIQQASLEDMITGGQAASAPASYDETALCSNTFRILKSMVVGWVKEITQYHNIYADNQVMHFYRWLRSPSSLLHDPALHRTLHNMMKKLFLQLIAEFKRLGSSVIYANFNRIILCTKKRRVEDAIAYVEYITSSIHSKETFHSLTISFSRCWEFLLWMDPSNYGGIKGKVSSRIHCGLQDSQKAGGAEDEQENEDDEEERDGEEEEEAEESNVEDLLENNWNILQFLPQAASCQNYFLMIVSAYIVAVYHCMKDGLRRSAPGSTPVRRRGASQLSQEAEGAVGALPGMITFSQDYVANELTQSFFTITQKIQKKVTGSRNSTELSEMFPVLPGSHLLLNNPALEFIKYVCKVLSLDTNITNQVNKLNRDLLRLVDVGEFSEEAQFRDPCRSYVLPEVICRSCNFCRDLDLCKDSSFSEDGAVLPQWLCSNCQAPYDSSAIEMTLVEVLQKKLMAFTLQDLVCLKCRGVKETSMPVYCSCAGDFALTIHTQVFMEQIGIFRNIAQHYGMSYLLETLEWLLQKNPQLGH
T3 sequence (P56282 whole entry, chain 2 of 4): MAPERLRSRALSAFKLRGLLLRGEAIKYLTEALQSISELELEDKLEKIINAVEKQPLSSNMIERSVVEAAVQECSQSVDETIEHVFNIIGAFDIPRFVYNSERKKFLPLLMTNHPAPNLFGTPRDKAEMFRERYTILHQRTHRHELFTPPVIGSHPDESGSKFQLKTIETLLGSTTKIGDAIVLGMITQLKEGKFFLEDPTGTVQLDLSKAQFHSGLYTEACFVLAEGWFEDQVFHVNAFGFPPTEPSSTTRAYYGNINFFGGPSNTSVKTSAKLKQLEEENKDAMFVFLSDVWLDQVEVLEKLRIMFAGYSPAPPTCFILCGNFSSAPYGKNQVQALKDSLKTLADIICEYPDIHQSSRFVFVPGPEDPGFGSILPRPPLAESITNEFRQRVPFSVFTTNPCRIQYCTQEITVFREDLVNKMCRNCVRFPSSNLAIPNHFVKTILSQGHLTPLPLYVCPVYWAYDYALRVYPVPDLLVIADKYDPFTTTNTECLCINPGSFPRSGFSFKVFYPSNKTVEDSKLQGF
T3 sequence (Q9NRF9 whole entry, chain 3 of 4): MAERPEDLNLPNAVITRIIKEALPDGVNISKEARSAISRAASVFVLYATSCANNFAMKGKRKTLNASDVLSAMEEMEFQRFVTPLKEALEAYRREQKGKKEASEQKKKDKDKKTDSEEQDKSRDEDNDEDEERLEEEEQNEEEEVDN
T3 sequence (Q9NR33 whole entry, chain 4 of 4): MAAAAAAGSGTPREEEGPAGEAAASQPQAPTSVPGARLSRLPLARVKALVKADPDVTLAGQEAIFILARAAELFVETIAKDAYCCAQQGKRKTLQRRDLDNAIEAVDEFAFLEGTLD

| Binder | binding result [1] | binding result [2] | binding result [3] | binding result [4] |
| --- | --- | --- | --- | --- |
| B1 | binds | binds |  |  |
| B2 |  |  | binds |  |
| B3 |  |  | binds | binds |
| B4 |  |  | binds |  |
